Patent US7183387 (Genentech, dated 2007)

T1: human FcγRIIA-R131 α subunit extracellular domain-6His-GST fusion (human, UniProt P12318 34-217)
T1 construct: also called FcγRIIA-Arg131; not shown: glutathione S-transferase (GST)
T1 sequence: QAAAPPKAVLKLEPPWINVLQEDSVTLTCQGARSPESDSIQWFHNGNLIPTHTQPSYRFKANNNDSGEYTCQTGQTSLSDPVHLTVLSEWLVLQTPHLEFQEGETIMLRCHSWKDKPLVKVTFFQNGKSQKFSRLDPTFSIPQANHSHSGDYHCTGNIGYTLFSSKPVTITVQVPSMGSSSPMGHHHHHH

T2: human FcγRIIB α subunit extracellular domain-6His-GST fusion (human, UniProt P31994 43-217)
T2 construct: not shown: glutathione S-transferase (GST)
T2 sequence: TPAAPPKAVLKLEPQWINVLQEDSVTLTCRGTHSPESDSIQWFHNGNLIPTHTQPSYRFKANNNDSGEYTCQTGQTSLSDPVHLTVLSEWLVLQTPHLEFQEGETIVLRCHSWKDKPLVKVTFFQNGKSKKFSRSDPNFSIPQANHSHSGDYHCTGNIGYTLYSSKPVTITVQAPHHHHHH


Tests used:
Assay in all cases: ELISA, IgG:IgE hexamers on receptor-GST
[1] = target: T1, human FcγRIIA-R131 α subunit …
[2] = target: T2, human FcγRIIB α subunit extracellular …
[3] = target: T3, human FcγRIIIA-F158 α subunit extracellular domain-6His-GST fusion (human, UniProt P08637 17-208)
T3 construct: also called FcγRIIIA-Phe158; not shown: glutathione S-transferase (GST)
T3 sequence (P08637 other isoform, or with tags, fused parts or gaps, form in doubt): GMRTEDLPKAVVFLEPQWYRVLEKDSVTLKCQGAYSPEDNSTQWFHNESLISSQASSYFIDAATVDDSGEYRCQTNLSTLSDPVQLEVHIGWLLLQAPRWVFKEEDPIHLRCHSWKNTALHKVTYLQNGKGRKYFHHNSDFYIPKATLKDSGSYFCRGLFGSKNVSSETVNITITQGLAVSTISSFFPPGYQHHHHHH

Row | ratio to native IgG1 [1] | ratio to native IgG1 [2] | ratio to native IgG1 [3] | Binder
1 | 1.04 | 1 | 1.27 | E27 IgG1 variant K326(345)N (antibody, also called IG2 209) heavy: not shown light: DIQLTQSPSSLSASVGDRVTITCRASKPVDGEGDSYLNWYQQKPGKAPKLLIYAASYLESGVPSRFSGSGSGTDFTLTISSLQPEDFATYYCQQSHEDPYTFGQGTKVEIKRTVAAPSVFIFPPSDEQLKSGTASVVCLLNNFYPREAKVQWKVDNALQSGNSQESVTEQDSKDSTYSLSSTLTLSKADYEKHKVYACEVTHQGLSSPVTKSFNRGEC
2 | 1.44 | 1.62 | 1.37 | E27 IgG1 variant K326(345)S (antibody) heavy: not shown light: DIQLTQSPSSLSASVGDRVTITCRASKPVDGEGDSYLNWYQQKPGKAPKLLIYAASYLESGVPSRFSGSGSGTDFTLTISSLQPEDFATYYCQQSHEDPYTFGQGTKVEIKRTVAAPSVFIFPPSDEQLKSGTASVVCLLNNFYPREAKVQWKVDNALQSGNSQESVTEQDSKDSTYSLSSTLTLSKADYEKHKVYACEVTHQGLSSPVTKSFNRGEC
3 | 0.81 | 0.77 | 0.61 | E27 IgG1 variant N276(289)K (antibody) heavy: not shown light: DIQLTQSPSSLSASVGDRVTITCRASKPVDGEGDSYLNWYQQKPGKAPKLLIYAASYLESGVPSRFSGSGSGTDFTLTISSLQPEDFATYYCQQSHEDPYTFGQGTKVEIKRTVAAPSVFIFPPSDEQLKSGTASVVCLLNNFYPREAKVQWKVDNALQSGNSQESVTEQDSKDSTYSLSSTLTLSKADYEKHKVYACEVTHQGLSSPVTKSFNRGEC
4 | 1.09 | 0.79 | 0.91 | E27 IgG1 variant N276(289)Q (antibody, also called IG2 233) heavy: not shown light: DIQLTQSPSSLSASVGDRVTITCRASKPVDGEGDSYLNWYQQKPGKAPKLLIYAASYLESGVPSRFSGSGSGTDFTLTISSLQPEDFATYYCQQSHEDPYTFGQGTKVEIKRTVAAPSVFIFPPSDEQLKSGTASVVCLLNNFYPREAKVQWKVDNALQSGNSQESVTEQDSKDSTYSLSSTLTLSKADYEKHKVYACEVTHQGLSSPVTKSFNRGEC
5 | 1.15 | 1.33 | 0.68 | E27 IgG1 variant K334(353)R (antibody) heavy: not shown light: DIQLTQSPSSLSASVGDRVTITCRASKPVDGEGDSYLNWYQQKPGKAPKLLIYAASYLESGVPSRFSGSGSGTDFTLTISSLQPEDFATYYCQQSHEDPYTFGQGTKVEIKRTVAAPSVFIFPPSDEQLKSGTASVVCLLNNFYPREAKVQWKVDNALQSGNSQESVTEQDSKDSTYSLSSTLTLSKADYEKHKVYACEVTHQGLSSPVTKSFNRGEC
6 | 1.13 | 1.09 | 1.34 | E27 IgG1 variant K334(353)V (antibody, also called IG2 220) heavy: not shown light: DIQLTQSPSSLSASVGDRVTITCRASKPVDGEGDSYLNWYQQKPGKAPKLLIYAASYLESGVPSRFSGSGSGTDFTLTISSLQPEDFATYYCQQSHEDPYTFGQGTKVEIKRTVAAPSVFIFPPSDEQLKSGTASVVCLLNNFYPREAKVQWKVDNALQSGNSQESVTEQDSKDSTYSLSSTLTLSKADYEKHKVYACEVTHQGLSSPVTKSFNRGEC
7 | 1.36 | 1.41 | 1.15 | E27 IgG1 variant K326(345)Q (antibody, also called IG2 210) heavy: not shown light: DIQLTQSPSSLSASVGDRVTITCRASKPVDGEGDSYLNWYQQKPGKAPKLLIYAASYLESGVPSRFSGSGSGTDFTLTISSLQPEDFATYYCQQSHEDPYTFGQGTKVEIKRTVAAPSVFIFPPSDEQLKSGTASVVCLLNNFYPREAKVQWKVDNALQSGNSQESVTEQDSKDSTYSLSSTLTLSKADYEKHKVYACEVTHQGLSSPVTKSFNRGEC
8 | 1.08 | 1.1 | 1.23 | E27 IgG1 variant K334(353)Q (antibody) heavy: not shown light: DIQLTQSPSSLSASVGDRVTITCRASKPVDGEGDSYLNWYQQKPGKAPKLLIYAASYLESGVPSRFSGSGSGTDFTLTISSLQPEDFATYYCQQSHEDPYTFGQGTKVEIKRTVAAPSVFIFPPSDEQLKSGTASVVCLLNNFYPREAKVQWKVDNALQSGNSQESVTEQDSKDSTYSLSSTLTLSKADYEKHKVYACEVTHQGLSSPVTKSFNRGEC
9 | 0.99 | 0.93 | 0.49 | E27 IgG1 variant K338(358)M (antibody) heavy: not shown light: DIQLTQSPSSLSASVGDRVTITCRASKPVDGEGDSYLNWYQQKPGKAPKLLIYAASYLESGVPSRFSGSGSGTDFTLTISSLQPEDFATYYCQQSHEDPYTFGQGTKVEIKRTVAAPSVFIFPPSDEQLKSGTASVVCLLNNFYPREAKVQWKVDNALQSGNSQESVTEQDSKDSTYSLSSTLTLSKADYEKHKVYACEVTHQGLSSPVTKSFNRGEC
10 | 1.16 | 1.29 | 1.11 | E27 IgG1 variant K334(353)N (antibody) heavy: not shown light: DIQLTQSPSSLSASVGDRVTITCRASKPVDGEGDSYLNWYQQKPGKAPKLLIYAASYLESGVPSRFSGSGSGTDFTLTISSLQPEDFATYYCQQSHEDPYTFGQGTKVEIKRTVAAPSVFIFPPSDEQLKSGTASVVCLLNNFYPREAKVQWKVDNALQSGNSQESVTEQDSKDSTYSLSSTLTLSKADYEKHKVYACEVTHQGLSSPVTKSFNRGEC
11 | 1.05 | 1.09 | 1.38 | E27 IgG1 variant K334(353)L (antibody, also called IG2 221) heavy: not shown light: DIQLTQSPSSLSASVGDRVTITCRASKPVDGEGDSYLNWYQQKPGKAPKLLIYAASYLESGVPSRFSGSGSGTDFTLTISSLQPEDFATYYCQQSHEDPYTFGQGTKVEIKRTVAAPSVFIFPPSDEQLKSGTASVVCLLNNFYPREAKVQWKVDNALQSGNSQESVTEQDSKDSTYSLSSTLTLSKADYEKHKVYACEVTHQGLSSPVTKSFNRGEC
12 | 0.74 | 0.72 | 1.3 | E27 IgG1 variant K334(353)E (antibody) heavy: not shown light: DIQLTQSPSSLSASVGDRVTITCRASKPVDGEGDSYLNWYQQKPGKAPKLLIYAASYLESGVPSRFSGSGSGTDFTLTISSLQPEDFATYYCQQSHEDPYTFGQGTKVEIKRTVAAPSVFIFPPSDEQLKSGTASVVCLLNNFYPREAKVQWKVDNALQSGNSQESVTEQDSKDSTYSLSSTLTLSKADYEKHKVYACEVTHQGLSSPVTKSFNRGEC
13 | 1.01 | 1.03 | 1.19 | E27 IgG1 variant K334(353)S (antibody) heavy: not shown light: DIQLTQSPSSLSASVGDRVTITCRASKPVDGEGDSYLNWYQQKPGKAPKLLIYAASYLESGVPSRFSGSGSGTDFTLTISSLQPEDFATYYCQQSHEDPYTFGQGTKVEIKRTVAAPSVFIFPPSDEQLKSGTASVVCLLNNFYPREAKVQWKVDNALQSGNSQESVTEQDSKDSTYSLSSTLTLSKADYEKHKVYACEVTHQGLSSPVTKSFNRGEC
14 | 0.51 | 0.4 | 1.13 | E27 IgG1 variant K334(353)D (antibody, also called IG2 140) heavy: not shown light: DIQLTQSPSSLSASVGDRVTITCRASKPVDGEGDSYLNWYQQKPGKAPKLLIYAASYLESGVPSRFSGSGSGTDFTLTISSLQPEDFATYYCQQSHEDPYTFGQGTKVEIKRTVAAPSVFIFPPSDEQLKSGTASVVCLLNNFYPREAKVQWKVDNALQSGNSQESVTEQDSKDSTYSLSSTLTLSKADYEKHKVYACEVTHQGLSSPVTKSFNRGEC
